Data: patent US20210388105A1 (ELPISCIENCE SUZHOU BIOPHARMA, published 2021)
Blank lines part the entries; values can stand above or below the binder they belong to.

Legend:
[1] = biological target: T1, human CD39 (full length, on cells) (human, UniProt P49961 1-510); assay: FACS, SK-MEL-28 cells
T1 construct: Recombinant on CHOK1-hCD39 cells or natural on SK-MEL-28, SK-MEL-5 and MOLP-8 cells; the cell line is named under assay; also called hCD39; ENTPD1
T1 sequence: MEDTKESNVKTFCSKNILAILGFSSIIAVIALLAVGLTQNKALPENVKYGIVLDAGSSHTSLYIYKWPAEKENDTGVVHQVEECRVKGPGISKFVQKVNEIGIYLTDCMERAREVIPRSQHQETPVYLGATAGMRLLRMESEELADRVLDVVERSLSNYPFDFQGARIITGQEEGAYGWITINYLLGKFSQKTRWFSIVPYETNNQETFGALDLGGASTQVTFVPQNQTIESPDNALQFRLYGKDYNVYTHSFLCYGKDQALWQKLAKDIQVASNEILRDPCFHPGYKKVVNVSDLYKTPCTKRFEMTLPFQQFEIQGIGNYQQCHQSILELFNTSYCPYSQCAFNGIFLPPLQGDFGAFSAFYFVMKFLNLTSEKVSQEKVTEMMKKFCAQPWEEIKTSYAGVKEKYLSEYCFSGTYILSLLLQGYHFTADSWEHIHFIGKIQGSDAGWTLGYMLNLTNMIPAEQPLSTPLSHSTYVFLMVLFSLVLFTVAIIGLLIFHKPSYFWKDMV
Protocol: Similarly, human CD39 expressing cells SK-MEL-5, SK-MEL-28 or MOLP-8, were incubated with a gradient concentration of anti-CD39 antibodies for 30 minutes at 4° C. Cells were washed 3 times using FACS buffer and next incubated with fluorescence labelled secondary antibody (goat-anti-mouse IgG or goat anti-human IgG) for 30 minutes at 4° C. Cells were washed 3 times and then re-suspended in FACS buffer and analyzed by flow cytometry analysis on BD Celesta. Data plotted and analyzed using GraphPad Prism 8.02.
Binding affinity of the humanized antibodies hu23.H5L5 and hu14.H1L1 were tested on different cells by FACS following the similar method as described in Example 3.2.
Reference antibodies T895 and 1394 were tested in parallel as control antibodies. As shown in FIG. 12 and summarized in Table 23, both antibodies hu23.H5L5 and hu14.H1L1 bound to human and cynomolgus CD39 expressing cells in a dose-dependent manner and with similar affinity by EC₅₀ at a sub-nanomolar or nanomolar level. Neither of them recognized mouse CD39 in the FACS study. Maximum signal (mean fluorescence intensity, MFI) differed between cells for each antibody may result from their different expression level.

[2] = biological target: T1, human CD39 (full length, on cells); assay: cell-based or functional assay
[3] = biological target: T2, 6×His tagged human CD39 (human, UniProt P49961 38-478); assay: Biacore SPR, antibody captured on CM5 chip, His-tagged CD39 as analyte
T2 construct: Analyte in the Biacore assay
T2 sequence: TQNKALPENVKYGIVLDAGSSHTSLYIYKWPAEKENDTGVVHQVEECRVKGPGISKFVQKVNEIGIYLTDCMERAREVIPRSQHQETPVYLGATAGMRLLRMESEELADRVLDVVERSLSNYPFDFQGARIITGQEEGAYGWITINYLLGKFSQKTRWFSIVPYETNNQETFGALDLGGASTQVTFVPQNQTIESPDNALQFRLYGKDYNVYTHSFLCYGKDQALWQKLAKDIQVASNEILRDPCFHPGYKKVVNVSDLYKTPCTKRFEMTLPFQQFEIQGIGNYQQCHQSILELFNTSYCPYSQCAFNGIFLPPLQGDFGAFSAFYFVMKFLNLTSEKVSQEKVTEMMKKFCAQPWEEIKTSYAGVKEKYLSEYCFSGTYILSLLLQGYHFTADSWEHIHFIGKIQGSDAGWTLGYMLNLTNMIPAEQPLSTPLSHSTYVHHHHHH
Protocol: In particular, humanized antibodies hu23.H5L5, hu23.201, hu14.H1L1 and reference antibodies 1394 and T895 were characterized for binding affinity against human CD39 using Biacore (GE). Briefly the antibodies to be tested were captured to CM5 chip (GE) using Human Antibody Capture Kit (GE). The antigen of 6×His tagged human CD39 was serially diluted for multiple doses and injected at 30 μl/min for 180s. Buffer flow was maintained for dissociation of 400s. 3 M MgCl2 was used for chip regeneration. The association and dissociation curves were fit with 1:1 binding model, and the Ka/Kd/KD values for each antibody were calculated.

- EC50 [1]: 0.36 nM
- ATPase activity inhibition IC50 on MOLP-8 cells [2]: 0.51 nM
- ATPase activity inhibition IC50 on SK-MEL-5 cells [2]: 0.09 nM
- Kd [3]: 1040 nM
- koff [3]: 0.139 s⁻¹
- kon [3]: 133000 M⁻¹ s⁻¹
B1: Antibody T895 (antibody, V domains shown)
VH: EVQLQQSGPELVKPGASVKMSCKASGYTFTDYNMHWVKQSHGRTLEWIGYIVPLNGGSTFNQKFKGRATLTVNTSSRTAYMELRSLTSEDSAAYYCARGGTRFAYWGQGTLVTVSA
VL: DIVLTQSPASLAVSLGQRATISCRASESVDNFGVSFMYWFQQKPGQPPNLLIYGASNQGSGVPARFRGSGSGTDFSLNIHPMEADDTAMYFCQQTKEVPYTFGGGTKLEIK
notes: also called 31895

- EC50 [1]: 0.99 nM
- ATPase activity inhibition IC50 on MOLP-8 cells [2]: 0.33 nM
- ATPase activity inhibition IC50 on SK-MEL-5 cells [2]: 0.07 nM
- Kd [3]: 19.5 nM
- koff [3]: 0.0016 s⁻¹
- kon [3]: 82200 M⁻¹ s⁻¹
B2: hu23.H5L5 (antibody, V domains shown)
VH: QVQLVQSGAEVKKPGASVKVSCKASGYNLKDTFLHWVRQAPGQGLEWMGRIDPANGNIKYDPKFQGRVTITADTSANTAYMELISLRSEDTAVYYCANSPYYYGSGYRIFDVWGQGTTVTVSS
VL: QIVLTQSPATLSLSPGERATLSCSAFSSVNYMHWYQQKPGQAPRLLIYTTSNLASGIPTRFSGSGSGTSYTLTISSLEPEDFAVYYCQQRSTYPFTFGQGTKLEIK
notes: humanized c23
